Experimental findings from KR20190060702A (dated 2019) are described below.

This assay has as its target T1, 사람 ICAM4 (intercellular adhesion molecule 4) (human, UniProt Q14773 31-271).
T1 construct: whole, on cells; Always on cells that carry it naturally; no recombinant ICAM4 was used; also called CD242; 1E1 항원
T1 sequence (looked up): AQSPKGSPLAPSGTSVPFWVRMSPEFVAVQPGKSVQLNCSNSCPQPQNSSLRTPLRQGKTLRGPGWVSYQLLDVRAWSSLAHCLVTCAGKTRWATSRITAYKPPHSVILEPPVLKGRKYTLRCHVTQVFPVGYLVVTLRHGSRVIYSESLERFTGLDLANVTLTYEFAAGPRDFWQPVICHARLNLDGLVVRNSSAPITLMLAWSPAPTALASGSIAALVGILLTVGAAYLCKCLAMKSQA
Put plainly: binding affinity compared with the chimeric antibody (Fig. 5).

B1: 항-ICAM4 인간화항체 VH2A 및 VL2C의 조합 (antibody, V domains shown)
VH: QVQLVESGGGLVKPGGSLRLSCAVSGFSLTDYGVGWIRQAPGKGLEWLGVMWGGGRTYYNAPVKSRLTISKDNAKNSVYLQMNSLRAEDTAVYYCVKTGQDYAVDYWGQGTLVTVSS
VL: EIVLTQSPATLSLSPGERATLSCRASKSVSKYLAWYQEKPGQANRLLIYSGSTLQSGIPARFSGSGSGTDFTLTISSLEPEDFAVYYCQQHNVYPWTFGQGTKVEIK
notes: also called VH2A/VL2C
As to B1, the binding result is on record as “binds”.
